Measured values taken from patent publication US8618101B2, “N-((1R,2S,5R)-5-(tert-butylamino)-2-((S)-3-(7-tert-butylpyrazolo[1,5-a][1,3,5]triazin-4-ylamino)-2-oxopyrrolidin-1-yl)cyclohexyl)acetamide, a dual modulator of chemokine receptor activity, crystalline forms and processes” (Bristol-Myers Squibb Company, priority 2009, dated 2013).

Target: CCR-2 (Homo sapiens, UniProt P41597)
Test: Cold competition ligand binding to hCCR-2 using 125I-human MCP-1
Settings: 125I-human MCP-1, n=8

Sequence of CCR-2 (P41597 whole entry): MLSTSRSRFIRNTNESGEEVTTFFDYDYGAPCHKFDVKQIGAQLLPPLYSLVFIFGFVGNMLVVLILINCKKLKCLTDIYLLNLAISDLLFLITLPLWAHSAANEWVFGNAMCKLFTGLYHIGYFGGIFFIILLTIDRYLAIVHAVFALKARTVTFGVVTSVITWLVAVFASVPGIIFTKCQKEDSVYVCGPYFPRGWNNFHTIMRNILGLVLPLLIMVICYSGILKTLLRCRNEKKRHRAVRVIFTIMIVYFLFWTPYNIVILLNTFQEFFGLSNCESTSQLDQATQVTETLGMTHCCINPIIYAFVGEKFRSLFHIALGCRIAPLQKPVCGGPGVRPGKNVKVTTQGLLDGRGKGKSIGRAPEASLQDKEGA

Kd: 0.91 nM
Substance: mouse MCP-1: mouse chemokine MCP-1, major ligand of CCR-2
